± gives the uncertainty stated by the source.
Experiment: self-splicing fitness, log relative to wild type (ln ratio); higher = more splicing; Tetrahymena group I intron in knt gene, E. coli kanamycin selection, DiMSum; sequences stand for … in CUCUCU…GGAGGGAAAAGUUAUCAGGCAUGCACCUGGUAGCUAGUCUUUAAACCAAUAGAUUGCAUCGGUUUAAAAGGCAAGACCGUCAAAUUGCGGGAAAGGGGUCAACAGCCGUUCAGUACCAAGUCUCAGGGGAAACUUUGAGAUGGCCUUGCAAAGGGUAUGGUAAUAAGCUGACGGACAUGGUCCUAACCACGCAGCCAAGUCCUAAGUCAACAGAUCUUCUGUUGAUAUGGAUGCAGUUCACAGACUAAAUGUCGGUCGGGGAAGAUGUAUUCUUCUCAUAAGAUAUAGUCGGACCUCUCCUUAAUGGGAGCUAGCGGAUGAAGUGAUGCAACACUGGAGCCGCUGGGAACUAAUUUGUAUGCGAAAGUAUAUUGAUUAGUUUUGGAGUACUCGUGGUCG
Procedure, shortened: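 Six replicate transformations of E. coli BL21(DE3) with a pET-22b(+) library were grown overnight at 37°C or 30°C. The library randomised all eight P1ex-region intron nucleotides, the intron lying in the knt kanamycin-resistance gene, and plates were LB agar with or without 25 μg/mL kanamycin plus 100 μg/mL carbenicillin, 50 μM IPTG and 0.2% rhamnose. Pooled colonies were amplicon-sequenced on an Illumina HiSeq 2500, and fitness is the DiMSum error-weighted combination of wild-type-normalised replicate fold changes, kanamycin versus none.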

Sequence | self-splicing fitness (ln) (30 °C) | self-splicing fitness (ln) (37 °C)
AGCCAGCAAUAUUACGGAAC | -2.72 ± 0.18 | -3.1 ± 0.3
AGCCAGCAAUAUUACGGAUC | -2.03 ± 0.1 | -1.25 ± 0.13
AGCCAGCAAUAUUACGGCAA | -0.763 ± 0.067 | -0.321 ± 0.075
AGCCAGCAAUAUUACGGCUU | -4.74 ± 0.41 | -2.89 ± 0.21
AGCCAGCAAUAUUACGGGUC | -3.28 ± 0.18 | -2.13 ± 0.2
AGCCAGCAAUAUUACGGUGA | -1.82 ± 0.091 | -1.2 ± 0.089
AGCCAGCAAUAUUACGUUCG | -3.46 ± 0.19 | -2.48 ± 0.22
AGCGAGCAAUAUUACGAAAG | – | -0.117 ± 0.3
AGCGAGCAAUAUUACGAAUA | -3.75 ± 0.46 | -3.32 ± 0.37
AGCGAGCAAUAUUACGACUC | -2.06 ± 0.21 | -1.3 ± 0.24
AGCGAGCAAUAUUACGCUAG | -3.66 ± 0.29 | -2.04 ± 0.27
AGCGAGCAAUAUUACGCUCG | -3.5 ± 0.27 | -2.34 ± 0.49
AGCGAGCAAUAUUACGCUGU | -3.15 ± 0.32 | -2.08 ± 0.22
AGCGAGCAAUAUUACGCUUC | -3.16 ± 0.24 | -2.02 ± 0.28
AGCGAGCAAUAUUACGGACC | -0.957 ± 0.13 | -1.08 ± 0.18
AGCGAGCAAUAUUACGGAGU | -3.99 ± 0.28 | -3.15 ± 0.3
AGCGAGCAAUAUUACGGGAG | -2.82 ± 0.2 | -2 ± 0.29
AGCGAGCAAUAUUACGGUCG | -2.52 ± 0.12 | -1.86 ± 0.13
AGCGAGCAAUAUUACGUGGA | -2.95 ± 0.22 | -2.81 ± 0.16
AGCGAGCAAUAUUACGUUCG | -2.14 ± 0.37 | -2.67 ± 0.38
AGCGAGCAAUAUUACGUUCU | -2.13 ± 0.14 | -0.892 ± 0.14
AGCUAGCAAUAUUACGAAGG | -4.22 ± 0.39 | -1.82 ± 0.26
AGCUAGCAAUAUUACGACGA | -1.17 ± 0.12 | -0.734 ± 0.14
AGCUAGCAAUAUUACGACGU | 0.0109 ± 0.068 | -0.112 ± 0.08

Sequence | self-splicing fitness (ln) (30 °C) | self-splicing fitness (ln) (37 °C)
AGCUAGCAAUAUUACGCAAG | -4.11 ± 0.47 | -2.93 ± 0.3
AGCUAGCAAUAUUACGCACA | -1.51 ± 0.21 | -0.817 ± 0.2
AGCUAGCAAUAUUACGCCUC | -2.07 ± 0.34 | -1.46 ± 0.37
AGCUAGCAAUAUUACGCGGA | -2.29 ± 0.14 | -2.71 ± 0.18
AGCUAGCAAUAUUACGCGUG | -1.6 ± 0.088 | -1.53 ± 0.12
AGCUAGCAAUAUUACGCUUA | -1.8 ± 0.19 | -2.01 ± 0.19
AGCUAGCAAUAUUACGGAAA | -3.11 ± 0.25 | -0.395 ± 0.16
AGCUAGCAAUAUUACGGAAG | -2.35 ± 0.086 | -1.34 ± 0.11
AGCUAGCAAUAUUACGGAUG | -2.3 ± 0.082 | -0.891 ± 0.095
AGCUAGCAAUAUUACGGCAC | -1.75 ± 0.14 | -0.45 ± 0.16
AGCUAGCAAUAUUACGGCGU | 0.111 ± 0.11 | -0.724 ± 0.13
AGCUAGCAAUAUUACGGUGC | -2.43 ± 0.17 | -2.03 ± 0.22
AGCUAGCAAUAUUACGGUUC | -3.44 ± 0.28 | -0.512 ± 0.17
AGCUAGCAAUAUUACGUAAG | -2.91 ± 0.12 | -1.71 ± 0.14
AGCUAGCAAUAUUACGUACC | -0.329 ± 0.19 | -0.483 ± 0.25
AGCUAGCAAUAUUACGUAGA | -4.65 ± 0.32 | -1.15 ± 0.14
AGCUAGCAAUAUUACGUCUA | -1.49 ± 0.11 | -0.745 ± 0.13
AGCUAGCAAUAUUACGUUAG | -3.14 ± 0.22 | -2.56 ± 0.22
AGGAAGCAAUAUUACGAACA | -1.85 ± 0.14 | -0.21 ± 0.2
AGGAAGCAAUAUUACGAAGU | -2.15 ± 0.24 | -1.82 ± 0.33
AGGAAGCAAUAUUACGAGUG | -2.62 ± 0.13 | -1.8 ± 0.14
AGGAAGCAAUAUUACGAUCC | -0.54 ± 0.16 | -0.331 ± 0.17
AGGAAGCAAUAUUACGAUGU | -1.51 ± 0.087 | -0.634 ± 0.1
AGGAAGCAAUAUUACGCGGU | -4.18 ± 0.39 | -1.31 ± 0.2

From the supplement of paper PMC7877785
